The target in assay [1] is T1, his-tagged human CDH6 extracellular region protein (hCDH6 ECD-his) (human, UniProt P55285 19-615).
T1 construct: also called Human CDH6-his; hCDH6-his; not shown: his tag
T1 sequence: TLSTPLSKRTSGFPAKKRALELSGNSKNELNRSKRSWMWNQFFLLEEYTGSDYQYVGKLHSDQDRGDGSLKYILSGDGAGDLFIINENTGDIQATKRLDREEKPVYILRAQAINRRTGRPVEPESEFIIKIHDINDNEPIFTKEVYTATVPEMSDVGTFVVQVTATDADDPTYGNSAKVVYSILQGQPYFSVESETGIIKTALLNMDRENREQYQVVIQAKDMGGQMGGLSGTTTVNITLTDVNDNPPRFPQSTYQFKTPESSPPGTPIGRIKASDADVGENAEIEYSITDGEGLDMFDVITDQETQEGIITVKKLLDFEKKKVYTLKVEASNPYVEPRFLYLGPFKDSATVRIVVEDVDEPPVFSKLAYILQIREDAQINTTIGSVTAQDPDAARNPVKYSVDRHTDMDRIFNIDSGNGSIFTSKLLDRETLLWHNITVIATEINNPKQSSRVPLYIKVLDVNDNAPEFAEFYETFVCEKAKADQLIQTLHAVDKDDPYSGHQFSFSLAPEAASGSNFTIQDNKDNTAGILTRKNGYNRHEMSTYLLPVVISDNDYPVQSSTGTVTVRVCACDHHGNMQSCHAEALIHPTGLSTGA
Nature of the assay: ELISA, coated antigen. The protocol: Human CDH6 protein (hCDH6 ECD-his, conventionally synthesized), monkey CDH6 protein (cynoCDH6 ECD-his, conventionally synthesized; the cynoCDH6 ECD sequence was derived from Uniprot #A0A2K5TW62 (19-615)), and murine CDH6 protein (mCDH6 ECD-his, conventionally synthesized; the mCDH6 ECD sequence was derived from Uniprot #P97326 (19-615)) were diluted with PBS to a final concentration of 1 μg/mL, and added to a 96-well ELISA plate at 100 μL/well. The plate was incubated at 4° C. overnight. The next day, the plate was washed 3 times with a plate washing solution (PBS+0.01% (v/v) Tween 20), and a blocking buffer (PBS+0.01% (v/v) Tween 20+2% (w/w) BSA) was added for blocking at room temperature for 2 h. The blocking buffer was discarded, and the plate was washed 3 times. The chimeric antibodies were diluted with 1% BSA+PBS (purchased from Cytiva, Cat. No. SH30264.01) and added to the 96-well plate at 50 μL/well. After incubation at 37° C. for 2 h, the plate was washed 3 times with a plate washing solution. […] The plate was incubated at 37° C. for 1 h and then washed 5 times with a plate washing solution. A TMB substrate (purchased from Seracare, Cat. No. 5120-0077) was added at 50 μL/well and incubated at room temperature for 10 min, then a stop solution (1.0 N HCl) was added at 50 μL/well. OD450 nm values were read using a microplate reader (Biotek). Analysis was performed by the GraphPad Prism software, data were fitted, and EC50 values were calculated. The chimeric antibodies tested all had strong binding to the human CDH6 protein, the monkey CDH6 protein, and the murine CDH6 protein.
(§1) According to the above sequences, heavy chain (HC) and light chain (LC) plasmids were constructed (the nucleic acid sequences encoding the VH and VL of the antibodies were recombined into an expression vector carrying a signal peptide (SEQ ID NO: 132, […]) and a heavy chain constant region/light chain constant region sequence to obtain recombinant plasmids expressing VH-CH1-Fc/VL-CL).
A general note: An ELISA detects its analyte on a solid surface through an enzyme-linked reagent.

The target of assay [2] is T2, human CDH6 on tumor cells (OVCAR3 cells, PA-1 cells) (human, UniProt P55285 54-790).
T2 sequence: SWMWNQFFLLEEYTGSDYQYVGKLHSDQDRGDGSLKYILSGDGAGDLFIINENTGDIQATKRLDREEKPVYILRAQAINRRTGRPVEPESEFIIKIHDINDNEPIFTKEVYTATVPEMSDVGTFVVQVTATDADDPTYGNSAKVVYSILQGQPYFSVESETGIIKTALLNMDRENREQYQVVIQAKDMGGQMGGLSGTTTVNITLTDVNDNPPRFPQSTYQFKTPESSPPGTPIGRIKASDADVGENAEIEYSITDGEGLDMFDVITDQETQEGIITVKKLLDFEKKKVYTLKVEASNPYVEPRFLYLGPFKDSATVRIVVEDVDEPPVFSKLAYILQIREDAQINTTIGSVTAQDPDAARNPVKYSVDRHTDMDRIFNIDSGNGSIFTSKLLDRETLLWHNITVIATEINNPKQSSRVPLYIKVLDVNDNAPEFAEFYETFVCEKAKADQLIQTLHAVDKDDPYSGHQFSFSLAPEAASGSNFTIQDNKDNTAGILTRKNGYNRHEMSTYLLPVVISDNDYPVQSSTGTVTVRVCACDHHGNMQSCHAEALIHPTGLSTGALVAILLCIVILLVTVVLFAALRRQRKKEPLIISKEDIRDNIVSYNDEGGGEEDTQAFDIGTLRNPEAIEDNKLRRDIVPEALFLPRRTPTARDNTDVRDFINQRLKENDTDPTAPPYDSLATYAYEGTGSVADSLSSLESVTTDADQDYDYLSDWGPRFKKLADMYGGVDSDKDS
As to the kind of experiment: FACS, PA-1 cells. The protocol: OVCAR3 cells with high expression of CDH6 and PA-1 cells with moderate expression of CDH6 were used to detect the binding activity of the antibodies to the cells. […] The cells were washed once with PBS, counted, resuspended to 2×10⁶ cells/mL in an FACS buffer (PBS+2% FBS), and then added to a 96-well plate at 50 μL/well. The chimeric antibodies were diluted with FACS buffer (PBS+2% FBS) and added to the 96-well plate at 50 μL/well, and the plate was incubated at 4° C. for 1 h. […] The dilution was added to the 96-well plate at 50 μL/well, and the plate was incubated at 4° C. for 1 h. After the plates were centrifuged and washed 2 times with PBS, the cells were resuspended in an FACS buffer. The mean fluorescence intensity (MFI) was measured using FACS Canton II (BD). Analysis was performed by the GraphPad Prism software, data were fitted, and EC50 values were calculated. The chimeric antibodies tested had strong binding to both OVCAR3 cells and PA-1 cells.
as §1, with “VH-CH1-Fc/VL-CL). According to the expression and purification methods in Example 2, the hCDH6-14 humanized antibodies were obtained, and the binding activity of the humanized antibodies was detected by ELISA and FACS (see 2.2 and 2.3 for the method).” for “VH-CH1-Fc/VL-CL).”

B1: hCDH6-14-H1L1 (antibody, V domains shown)
VH: EVQLVQSGAEVKKPGASVKVSCKASGYTFTDNYINWVRQAPGQRLEWMGWIYPGTGNSYYNEKFKGRVTITVDTSASTAYMELSSLRSEDTAVYYCASSYGDSFDYWGQGTTVTVSS
VL: DIQMTQSPSSLSASVGDRVTITCRASQDIRNYLNWYQQKPGKAFKLLISYTSRLHSGVPSRFSGSGSGTDFTFTISSLQPEDIATYYCQQYSQLPWTFGGGTKVEIK
notes: Humanized
Regarding B1, in assay [1], the EC50 worked out at 59 pM and the “Max OD450” value was 2.69 OD450. Moreover, in assay [2], the EC50 came to 260 pM and the “Max MFI” value amounted to 3680 MFI.

B2: hCDH6-14-H3L1 (antibody, V domains shown)
VH: EIQLVQSGAEVKKPGASVKVSCKASGYTFTDNYINWVRQAPGQRLEWMGWIYPGTGNSYYNEKFKGRVTLTVDTSASTAYMELSSLRSEDTAVYYCASSYGDSFDYWGQGTTVTVSS
VL: DIQMTQSPSSLSASVGDRVTITCRASQDIRNYLNWYQQKPGKAFKLLISYTSRLHSGVPSRFSGSGSGTDFTFTISSLQPEDIATYYCQQYSQLPWTFGGGTKVEIK
notes: Humanized
Regarding B2, in assay [1], a half-maximal response (EC50) required 96 pM and the “Max OD450” value came out at 2.62 OD450. Besides, in assay [2], a half-maximal response (EC50) required 260 pM and the “Max MFI” value stood at 3490 MFI.

B3: hCDH6-14-H5L1 (antibody, V domains shown)
VH: EVQLQQSGAEVKKPGASVKVSCKASGYTFTDNYINWVRQAPGQRLEWMGWIYPGTGNSYYNEKFKGRVTITVDTSASTAYMELSSLRSEDTAVYYCASSYGDSFDYWGQGTTVTVSS
VL: DIQMTQSPSSLSASVGDRVTITCRASQDIRNYLNWYQQKPGKAFKLLISYTSRLHSGVPSRFSGSGSGTDFTFTISSLQPEDIATYYCQQYSQLPWTFGGGTKVEIK
notes: Humanized
For B3, in assay [1], it took 79 pM to reach a half-maximal effect (EC50) and the “Max OD450” value came to 2.81 OD450. For the same molecule, in assay [2], a half-maximal response (EC50) required 250 pM and the “Max MFI” value is 3780 MFI.

B4: hCDH6-14-H2L1 (antibody, V domains shown)
VH: EIQLVQSGAEVKKPGASVKVSCKASGYTFTDNYINWVRQAPGQRLEWMGWIYPGTGNSYYNEKFKGRVTITVDTSASTAYMELSSLRSEDTAVYYCASSYGDSFDYWGQGTTVTVSS
VL: DIQMTQSPSSLSASVGDRVTITCRASQDIRNYLNWYQQKPGKAFKLLISYTSRLHSGVPSRFSGSGSGTDFTFTISSLQPEDIATYYCQQYSQLPWTFGGGTKVEIK
notes: Humanized
On to B4, for which, in assay [1], the response was half-maximal at 76 pM (EC50) and the “Max OD450” value was found to be 2.65 OD450. For the same molecule, in assay [2], the response was half-maximal at 250 pM (EC50) and the “Max MFI” value is 3560 MFI.

B5: hCDH6-14-H4L1 (antibody, V domains shown)
VH: EVQLVQSGAEVKKPGASVKVSCKASGYTFTDNYINWVRQAPGQGLEWMGWIYPGTGNSYYNEKFKGRVTITVDTSASTAYMELSSLRSEDTAVYYCASSYGDSFDYWGQGTTVTVSS
VL: DIQMTQSPSSLSASVGDRVTITCRASQDIRNYLNWYQQKPGKAFKLLISYTSRLHSGVPSRFSGSGSGTDFTFTISSLQPEDIATYYCQQYSQLPWTFGGGTKVEIK
notes: Humanized
In the case of B5, in assay [1], a half-maximal response (EC50) required 52 pM and the “Max OD450” value came to 2.62 OD450. For the same molecule, in assay [2], the EC50 turned out to be 250 pM and the “Max MFI” value was 3820 MFI.

B6: hCDH6-14-H1L2 (antibody, V domains shown)
VH: EVQLVQSGAEVKKPGASVKVSCKASGYTFTDNYINWVRQAPGQRLEWMGWIYPGTGNSYYNEKFKGRVTITVDTSASTAYMELSSLRSEDTAVYYCASSYGDSFDYWGQGTTVTVSS
VL: DIQMTQSPSSLSASVGDRVTITCRASQDIRNYLNWYQQKPGGAPKLLISYTSRLHSGVPSRFSGSGSGTDFTFTISSLQPEDIATYYCQQYSQLPWTFGGGTKVEIK
notes: Humanized
As to B6, in assay [1], the response was half-maximal at 128 pM (EC50) and the “Max OD450” value turned out to be 2.84 OD450. In assay [2], the EC50 is 220 pM and the “Max MFI” value turned out to be 3600 MFI.

B7: hCDH6-14-H4L2 (antibody, V domains shown)
VH: EVQLVQSGAEVKKPGASVKVSCKASGYTFTDNYINWVRQAPGQGLEWMGWIYPGTGNSYYNEKFKGRVTITVDTSASTAYMELSSLRSEDTAVYYCASSYGDSFDYWGQGTTVTVSS
VL: DIQMTQSPSSLSASVGDRVTITCRASQDIRNYLNWYQQKPGGAPKLLISYTSRLHSGVPSRFSGSGSGTDFTFTISSLQPEDIATYYCQQYSQLPWTFGGGTKVEIK
notes: Humanized
B7: in assay [1], the response was half-maximal at 89 pM (EC50) and the “Max OD450” value was found to be 2.64 OD450. Also, in assay [2], the EC50 was 260 pM and the “Max MFI” value was determined as 3570 MFI.

B8: hCDH6-14-H2L2 (antibody, V domains shown)
VH: EIQLVQSGAEVKKPGASVKVSCKASGYTFTDNYINWVRQAPGQRLEWMGWIYPGTGNSYYNEKFKGRVTITVDTSASTAYMELSSLRSEDTAVYYCASSYGDSFDYWGQGTTVTVSS
VL: DIQMTQSPSSLSASVGDRVTITCRASQDIRNYLNWYQQKPGGAPKLLISYTSRLHSGVPSRFSGSGSGTDFTFTISSLQPEDIATYYCQQYSQLPWTFGGGTKVEIK
notes: Humanized
In the case of B8, in assay [1], the EC50 was 98 pM and the “Max OD450” value turned out to be 2.54 OD450. In assay [2], the EC50 was 270 pM and the “Max MFI” value was 3930 MFI.

B9: hCDH6-14-H3L2 (antibody, V domains shown)
VH: EIQLVQSGAEVKKPGASVKVSCKASGYTFTDNYINWVRQAPGQRLEWMGWIYPGTGNSYYNEKFKGRVTLTVDTSASTAYMELSSLRSEDTAVYYCASSYGDSFDYWGQGTTVTVSS
VL: DIQMTQSPSSLSASVGDRVTITCRASQDIRNYLNWYQQKPGGAPKLLISYTSRLHSGVPSRFSGSGSGTDFTFTISSLQPEDIATYYCQQYSQLPWTFGGGTKVEIK
notes: Humanized
As to B9, in assay [1], a half-maximal effect (EC50) was put at 74 pM and the “Max OD450” value worked out at 2.63 OD450. For the same molecule, in assay [2], the EC50 amounted to 230 pM and the “Max MFI” value was 3490 MFI.

For orientation: EC50 means the concentration needed to bring the measured effect to its halfway point.
